Measured values: US20180002425A1 (Scripps Research, published 2018)
Each block holds one binder with its values, some of them ahead of it.

Key:
[1] = target: T1, extracellular domain of hEpoR-his tag (human, UniProt P19235 25-250); assay: pull-down: antibody mixed with hEpoR extracellular domain-his tag, captured on His-tag Dynabeads, bound antibody detected with anti-Fc:HRP (OD405nm); control is beads without EpoR
T1 construct: extracellular domain; also called EpoR ECD-his tag monomer protein; His-tagged monomeric EpoR; not shown: His tag
T1 sequence (looked up): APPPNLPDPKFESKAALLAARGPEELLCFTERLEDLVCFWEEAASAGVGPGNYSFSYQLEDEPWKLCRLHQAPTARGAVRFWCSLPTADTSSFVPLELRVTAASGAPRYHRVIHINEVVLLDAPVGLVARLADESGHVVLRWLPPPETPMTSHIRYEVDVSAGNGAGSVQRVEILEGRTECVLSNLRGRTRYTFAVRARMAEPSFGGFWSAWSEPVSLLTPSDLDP
Experimental: The single antibodies V-1 and V-3 and the bispecific antibody V-1/V-3 (BsAb) that were generated using “Knob-into-ole” technology were purified from HEK293F cells. (A) The purified proteins were analyzed using 7% Tris-Acetate gels with TA running buffer. (B) Antibody binding to the EpoR was tested by a “pull down” experiment. Different antibodies were mixed with the extracellular domain of hEpoR-his tag. The complexes were captured with His-tag Dynabeads and bound antibodies were detected with an anti-Fc:HRP antibody.

[2] = target: T1, extracellular domain of hEpoR-his tag; assay: BLI (Octet Red), scFv-Fc captured on anti-human IgG sensors, EpoR ectodomain monomer titrated, 1:1 model; V-1; not competed by EPO
Experimental: (§1) Kinetic characterization using bio-layer interferometry (BLI). Experiments were performed using the Octet Red (Fortebio Inc.). The scFv Fc fusion proteins were captured with anti-Human IgG Capture (AHC) Biosensors (kinetics grade Cat# 18-5060). A titration series of the purified EpoR ectodomain monomer protein was measured against the immobilized scFv Fc in the association/dissociation cycle. The data set was fit to a 1:1 binding model to determine ka, kd and Kd.
(§2) Thus, both EPO and the bispecific antibody achieve the obligatory asymmetric binding to the EpoR that is necessary for full agonist activity, albeit in different ways. In the case of EPO, asymmetry is achieved by the use of two distinct interfaces (site 1 and site 2) that bind with different affinities to a single site in the homodimeric EpoR (Watowich, J. Invest. Med. 59:1067, 2011). By contrast, the heterodimeric bispecific antibody achieves asymmetry by using its two different binding specifies to interact with different sites on the EpoR (FIG. 6).

[3] = target: T1, extracellular domain of hEpoR-his tag; assay: BLI (Octet Red), scFv-Fc captured on anti-human IgG sensors, EpoR ectodomain monomer titrated, 1:1 model; V-3; competed by EPO
Experimental: as §1, §2

[4] = target: T2, TpoR-IL6ST chimeric receptor on HEK293T SIE-bla reporter cells (clone CR2-9) (human, UniProt P40238 26-527; P40189 651-918, limits assumed); assay: cell-based or functional assay
T2 sequence (looked up): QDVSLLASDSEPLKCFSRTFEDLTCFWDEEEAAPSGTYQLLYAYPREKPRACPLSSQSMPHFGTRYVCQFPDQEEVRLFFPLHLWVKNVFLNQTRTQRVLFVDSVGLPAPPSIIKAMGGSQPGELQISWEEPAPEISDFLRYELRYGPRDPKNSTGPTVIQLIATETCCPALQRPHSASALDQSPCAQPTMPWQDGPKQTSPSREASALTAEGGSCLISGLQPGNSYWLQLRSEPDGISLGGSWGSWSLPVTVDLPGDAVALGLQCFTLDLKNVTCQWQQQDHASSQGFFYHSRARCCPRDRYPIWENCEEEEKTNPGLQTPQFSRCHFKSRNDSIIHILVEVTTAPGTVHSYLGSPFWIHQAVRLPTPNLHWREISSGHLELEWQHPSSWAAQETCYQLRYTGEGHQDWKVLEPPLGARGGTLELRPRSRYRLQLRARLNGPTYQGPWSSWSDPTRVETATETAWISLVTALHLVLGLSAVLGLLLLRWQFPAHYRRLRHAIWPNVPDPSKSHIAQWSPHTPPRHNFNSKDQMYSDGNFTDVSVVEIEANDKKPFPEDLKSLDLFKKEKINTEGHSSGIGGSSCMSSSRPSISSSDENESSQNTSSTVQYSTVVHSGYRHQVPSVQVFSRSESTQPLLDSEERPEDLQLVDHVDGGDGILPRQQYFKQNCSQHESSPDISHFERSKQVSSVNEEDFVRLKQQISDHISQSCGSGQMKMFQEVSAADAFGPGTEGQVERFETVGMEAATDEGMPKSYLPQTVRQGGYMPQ

[5] = target: T3, wild-type human TpoR on Ba/F3-hMpl cells (human, UniProt P40238 26-635); assay: cell-based or functional assay
T3 sequence (looked up): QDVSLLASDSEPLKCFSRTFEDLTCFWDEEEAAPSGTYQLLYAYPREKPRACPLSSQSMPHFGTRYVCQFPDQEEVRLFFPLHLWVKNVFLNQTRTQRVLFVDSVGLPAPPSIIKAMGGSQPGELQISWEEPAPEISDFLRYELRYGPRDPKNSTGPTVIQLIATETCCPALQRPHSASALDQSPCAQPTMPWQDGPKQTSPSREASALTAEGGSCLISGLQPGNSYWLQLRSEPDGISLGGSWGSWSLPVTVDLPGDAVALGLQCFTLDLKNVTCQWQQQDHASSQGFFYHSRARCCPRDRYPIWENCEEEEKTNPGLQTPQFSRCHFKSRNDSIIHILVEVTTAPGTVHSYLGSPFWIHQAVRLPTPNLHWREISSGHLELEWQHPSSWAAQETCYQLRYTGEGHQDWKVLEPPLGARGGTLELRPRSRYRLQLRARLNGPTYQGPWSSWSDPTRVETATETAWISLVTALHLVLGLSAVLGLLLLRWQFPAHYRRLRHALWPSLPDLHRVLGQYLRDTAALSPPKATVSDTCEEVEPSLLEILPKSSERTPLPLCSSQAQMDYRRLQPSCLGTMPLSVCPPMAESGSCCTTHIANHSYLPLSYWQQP

B1: heterodimeric bispecific antibody V-1/V-3 (bispecific antibody, V domains shown)
VH 1: MAQVQLVQSGAEVKKPGSSVKVSCKASGGTFSSYAISWVRQAPGQGLEWMGGIIPIFGTANYAQKFQGRVTITADESTSTAYMELSSLRSEDTAVYYCARDQGYYYGSGGLDYWGQGTLVTVSS
VL 1: DIQMTQSPSSLSASVGDRVTITCRASQSISSYLNWYQQKPGKAPKLLIYAASSLQSGVPSRFSGSGSGTDFTLTISSLQPEDFATYYCLQDYNYPLTFGGGTKVEIK
VH 2: MAQVQLVQSGAEVKKPGASVKVSCKASGYTFTSYGISWVRQAPGQGLEWMGWISAYNGNTNYAQKLQGRVTMTTDTSTSTAYMELRSLRSDDTAVYYCARGVAAALSYWGQGTLVTVSS
VL 2: QSALTQPASVSGSPGQSITISCTGTSSDVGAYNYVSWYQQHPGKAPKLMIYEVTKRPSGVPDRFSGSKSGNTASLTISGLQAEDEADYYCISFTASSTWAFGGGTKLTVLG
notes: Heterodimer of two scFv-Fc chains (human IgG1 Fc, hinge to CH3) made by knobs-into-hole engineering: T366Y in the CH3 of one monomer and Y407T in the other; also called BsAb; bispecific heterodimeric antibody
binding result [1]: binds

B3: EpoR antibody V-3 (scFv-Fc homodimer) (Fc fusion)
VH: MAQVQLVQSGAEVKKPGASVKVSCKASGYTFTSYGISWVRQAPGQGLEWMGWISAYNGNTNYAQKLQGRVTMTTDTSTSTAYMELRSLRSDDTAVYYCARGVAAALSYWGQGTLVTVSS
VL: QSALTQPASVSGSPGQSITISCTGTSSDVGAYNYVSWYQQHPGKAPKLMIYEVTKRPSGVPDRFSGSKSGNTASLTISGLQAEDEADYYCISFTASSTWAFGGGTKLTVLG
Kd [3]: 45 nM

Continued, values first:

Kd [2]: 26 nM
B2: EpoR antibody V-1 (scFv-Fc homodimer) (Fc fusion)
VH: MAQVQLVQSGAEVKKPGSSVKVSCKASGGTFSSYAISWVRQAPGQGLEWMGGIIPIFGTANYAQKFQGRVTITADESTSTAYMELSSLRSEDTAVYYCARDQGYYYGSGGLDYWGQGTLVTVSS
VL: DIQMTQSPSSLSASVGDRVTITCRASQSISSYLNWYQQKPGKAPKLLIYAASSLQSGVPSRFSGSGSGTDFTLTISSLQPEDFATYYCLQDYNYPLTFGGGTKVEIK

EC50, short-term fluorescence (FRET beta-lactamase) reporter assay [4]: ~0.01 nM
EC50, long-term proliferation assay (MTS) of Ba/F3-hMPL cells [5]: 0.005 nM
B4: 3D9 TpoR agonist antibody (Fc fusion, not shown: a dimerising Fc or GST)
scFv: MAQVQLVQSGAEVRKVGSSVKVSCKASRDTFNTYGISWVRQAPGQGLEWMGGIIPIFGTADYAQKFRGRVTITADESTSTAYMELSSLRSEDTAVYYCARDRKLGGSDYWGQGTLVTVSSGGGGSGGGGSGGGGSDIVMTQSPSSVSASVGDKVTITCRASQGLGRWLAWYQQEPGKAPKLLIYAASTLQRGVPSRFSGSGSGTDFTLTISSLQPEDFATYYCQQSNSFPWTFGQGTKLEIKR
